These results are taken from patent US20200270586A1.

LgTrip 3546 (with His tag; SEQ ID NO: 51), sequence (chain, as listed by the source): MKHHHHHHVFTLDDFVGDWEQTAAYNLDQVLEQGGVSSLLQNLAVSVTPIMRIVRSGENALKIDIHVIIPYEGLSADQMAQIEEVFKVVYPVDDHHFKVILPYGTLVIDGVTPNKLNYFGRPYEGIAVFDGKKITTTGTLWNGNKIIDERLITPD

The experiment addresses LgTrip 3546 (with His tag; SEQ ID NO: 51). In words: luminescence complementation. To be noted: modification not given.
Take DKLLFKVTIEKYK [755]: the Kd (commonly the free concentration of one partner at which half of the binding sites on the other are occupied at equilibrium, for simple one-to-one binding) was 1450 nM. In the case of GKMLFRVSINSWK [614] it was 2580 nM; in that of RQMLFRVTINSWK [652], 30 nM; in that of EQMLFRVTINSWK [656], 6260 nM. In the case of EKLLFTVTIGKWK [711] it was 500 nM.

As to ELMLFRVTINSWK [655], the Kd stood at 15900 nM. With GKMKFRVTIRSWK [719] the figure was 370 nM; with GKMSFRVTINSWK [616], 1230 nM; with EKLLFRVTIGKYK [726], 640 nM. GKMKFRVTIESWK [717] had a Kd of 1140 nM. Compared with the last molecule, the Kd is about 1.8-fold higher. In the case of KQMLFRVTINSWK [654] it was 60 nM; in that of GKMLFRVTISKWK [670], 30 nM; in that of DKLLFKVTIQKWK [746], 1100 nM. With RLMLFRVTIGKWK [676] the figure was 20 nM; with DKMLFKVTIQKWK [744], 1130 nM; with GKMLFRVTINRWK [701], 120 nM. In turn, GKMWFRVTINSWK [617] displayed a Kd of 320 nM. On to EKMLFRVTIGRWK [709], for which the Kd came out at 180 nM. This Kd is about 1.8-fold lower than that of the molecule before.

The molecule GKMLFRVTITKWK [672] gave a Kd of 10 nM.

The molecule GSMLFRVTINSYK [619] displayed a Kd of 1510 nM. DKLLFKVTIEKWK [754] returned a dissociation constant (Kd) of 750 nM. In the case of DKLLFKVTIQKYK [747] it was 100 nM.

The molecule DQMLFRVTINSWK [658] came in with a Kd of 4380 nM. This Kd is about 44-fold higher than that of the molecule before. The molecule EKMLFTVTIGKWK [710] returned a Kd of 1290 nM. With EKMLFTVTIGRWK [712] the figure was 370 nM.

Take DKMLFRVTIGKWK [739]: the Kd came to 200 nM. Molecule GKMLFRVNINSWK [613] gave a Kd of 5250 nM. In the case of EKMLFTVTIEKWK [720] it was 360 nM.
